Experimental data published in publication PMC3573033, “Allosteric Regulation of Serine Protease HtrA2 through Novel Non-Canonical Substrate Binding Pocket” (PLoS ONE, 2013).

T1: HtrA2 (High temperature requirement protease A2), mature (Δ133 HtrA2), wild type (UniProt O43464 134-458)
T1 construct: HtrA2 (High temperature requirement protease A2), mature form Δ133, 325 amino acids; numbers count on: the mature protein; source: E. coli BL21 (DE3) pLysS, purified (nickel-IDA, gel permeation chromatography)
T1 sequence (looked up): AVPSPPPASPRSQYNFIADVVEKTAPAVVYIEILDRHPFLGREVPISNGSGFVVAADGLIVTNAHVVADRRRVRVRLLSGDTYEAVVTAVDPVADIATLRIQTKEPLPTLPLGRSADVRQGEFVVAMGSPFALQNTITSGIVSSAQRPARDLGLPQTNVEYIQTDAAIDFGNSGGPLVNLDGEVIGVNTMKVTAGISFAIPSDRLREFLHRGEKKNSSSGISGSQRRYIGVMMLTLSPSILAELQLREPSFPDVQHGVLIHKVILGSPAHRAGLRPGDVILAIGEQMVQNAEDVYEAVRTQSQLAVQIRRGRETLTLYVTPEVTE


How the values were obtained:
[1] = target: T1, HtrA2 (High temperature requirement …); assay: ITC; MicroCal ITC200; 200 µl of wild type or N216A/S219A HtrA2 (20 to 50 µM) in the cell, titrated with 1.5 µl injections of 0.4 mM activator peptide; 20 mM Na2HPO4/NaH2PO4, 100 mM NaCl, pH 7.8; 25°C; one site-binding model; conditions: both partners purified
[2] = target: HtrA2 (High temperature requirement protease A2), mature (Δ133 HtrA2), wild type (UniProt O43464)
[3] = target: HtrA2 N-SPD (N-terminal and serine protease domains, residues 1-210)

| Kd [1] [µM] | Km, cleavage of FITC-labelled β-casein (steady state kinetics) [2] [µM] | Km, cleavage of FITC-labelled β-casein (steady state kinetics) [3] [µM] | Binder |
| --- | --- | --- | --- |
| 7.5 |  |  | SEHRRHFPNCFFV [13mer activating peptide SEHRRHFPNCFFV] |
|  | 4.59 | 3.02 | FITC-labelled β-casein (natural protein, FITC label) RELEELNVPGEIVESLSSSEESITRINKKIEKFQSEEQQQTEDELQDKIHPFAQTQSLVYPFPGPIPNSLPQNIPPLTQTPVVVPPFLQPEVMGVSKVKEAMAPKHKEMPFPKYPVEPFTESQSLTLTDVENLHLPLPLLQSWMHQPHQPLPPTVMFPPQSVLSLSQSKVLPVPQKAVPYPQRDMPIQAFLLYQEPVLGPVRGPFPIIV |
